Source: publication PMC11077950

What was measured:
[1] = molecular target: T1, NfxB T39R T51R (Pseudomonas aeruginosa PAO1) (UniProt P32265); test: EMSA; conditions: EMSA: PBS (137 mM NaCl, 2.7 mM KCl, 8 mM Na2HPO4, 2 mM KH2PO4), 2 uL glycerin in 20 uL, 80 ng DNA, 5-70 pmol protein, 25 C, 30 min, SPR: PBS, 30 uL/min …
T1 sequence: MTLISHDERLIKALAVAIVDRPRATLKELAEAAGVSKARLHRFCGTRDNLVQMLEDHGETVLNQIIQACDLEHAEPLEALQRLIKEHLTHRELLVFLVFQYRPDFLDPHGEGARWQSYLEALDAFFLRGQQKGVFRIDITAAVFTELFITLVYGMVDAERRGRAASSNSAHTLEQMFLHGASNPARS

TNfxB3 = test: SPR; conditions: EMSA: PBS (137 mM NaCl, 2.7 mM KCl, 8 mM Na2HPO4, 2 mM KH2PO4), 2 uL glycerin in 20 uL, 80 ng DNA, 5-70 pmol protein, 25 C, 30 min, 30 uL/min …

Sequence	binding [1]	Kd (TNfxB3) [µM]
CTCATCGGCAGCAGTTAAATCCATCGGTCACTCTTTATCTATCGCGGGCAGATGCGGGTATTTTGCCTAGAACACTCATTTTTCTCAAAGAGGATACTAGCTTTGTTCACACCAAAATCAAATGAGTCAATATTGACTTATTTGATTTTTGCGTGGATCATGCGCGGCTTCGACTACGTACTGGCTTCGTGCTTGGGTGAGATATGAACAAATTCCGCGAATGGATCAC (double strand) [tnfxB1-tmexC1 intergenic DNA (PtmexC1), EMSA]	binds more weakly	
ATACTAGCTTTGTTCACACCAAAATCAAATGAGTCAATATTGACTTATTTGATTTTTGCGTGGATCATGCGCGGCTTCGAC (double strand) [SPR operator DNA with two inverted repeats, 81 bp]		0.917
